Where “and” joins values, the source holds several entries; their conditions need not be identical. Equal values may be shown once.
Key:
[1] = target: the molecule itself; assay: dynamic light scattering; pH 1.4, 100 µM protein (monomer), 25 °C
[2] = target: the molecule itself; assay: crystal structure; hanging drop vapor diffusion at 25 °C; 7% PEG 2000 MME, 2% MPD, 50 mM Tris-HCl pH 6.5; asymmetric part holds three subunits, hexamer by crystallographic symmetry

B1: Pseudomonas aeruginosa Hfq Y55W mutant (natural protein)
chain: MSKGHSLQDPYLNTLRKERVPVSIYLVNGIKLQGQIESFDQFVILLKNTVSQMVWKHAISTVVPSRPVRLPSGDQPAEPGNA
notes: also called Y55W (hexamer); Pae Hfq Y55W
[1]
  stoichiometry N: 3 and 2
[2]
  stoichiometry N: 6

From publication PMC9228748, “The Denaturant- and Mutation-Induced Disassembly of Pseudomonas aeruginosa Hexameric Hfq Y55W Mutant” (Molecules, 2022)
